First the molecules themselves.
B1: Trinucleotide repeat-containing gene 6A protein (Homo sapiens), Q8NDV7 (parent)
chain: MRELEAKATKDVERNLSRDLVQEEEQLMEEKKKKKDDKKKKEAAQKKATEQKIKVPEQIKPSVSQPQPANSNNGTSTATSTNNNAKRATANNQQPQQQQQQQQPQQQQPQQQPQPQPQQQQPQQQPQALPRYPREVPPRFRHQEHKQLLKRGQHFPVIAANLGSAVKVLNSQSESSALTNQQPQNNGEVQNSKNQSDINHSTSGSHYENSQRGPVSSTSDSSTNCKNAVVSDLSEKEAWPSAPGSDPELASECMDADSASSSESERNITIMASGNTGGEKDGLRNSTGLGSQNKFVVGSSSNNVGHGSSTGPWGFSHGAIISTCQVSVDAPESKSESSNNRMNAWGTVSSSSNGGLNPSTLNSASNHGAWPVLENNGLALKGPVGSGSSGINIQCSTIGQMPNNQSINSKVSGGSTHGTWGSLQETCESEVSGTQKVSFSGQPQNITTEMTGPNNTTNFMTSSLPNSGSVQNNELPSSNTGAWRVSTMNHPQMQAPSGMNGTSLSHLSNGESKSGGSYGTTWGAYGSNYSGDKCSGPNGQANGDTVNATLMQPGVNGPMGTNFQVNTNKGGGVWESGAANSQSTSWGSGNGANSGGSRRGWGTPAQNTGTNLPSVEWNKLPSNQHSNDSANGNGKTFTNGWKSTEEEDQGSATSQTNEQSSVWAKTGGTVESDGSTESTGRLEEKGTGESQSRDRRKIDQHTLLQSIVNRTDLDPRVLSNSGWGQTPIKQNTAWDTETSPRGERKTDNGTEAWGSSATQTFNSGACIDKTSPNGNDTSSVSGWGDPKPALRWGDSKGSNCQGGWEDDSAATGMVKSNQWGNCKEEKAAWNDSQKNKQGWGDGQKSSQGWSVSASDNWGETSRNNHWGEANKKSSSGGSDSDRSVSGWNELGKTSSFTWGNNINPNNSSGWDESSKPTPSQGWGDPPKSNQSLGWGDSSKPVSSPDWNKQQDIVGSWGIPPATGKPPGTGWLGGPIPAPAKEEEPTGWEEPSPESIRRKMEIDDGTSAWGDPSKYNYKNVNMWNKNVPNGNSRSDQQAQVHQLLTPASAISNKEASSGSGWGEPWGEPSTPATTVDNGTSAWGKPIDSGPSWGEPIAAASSTSTWGSSSVGPQALSKSGPKSMQDGWCGDDMPLPGNRPTGWEEEEDVEIGMWNSNSSQELNSSLNWPPYTKKMSSKGLSGKKRRRERGMMKGGNKQEEAWINPFVKQFSNISFSRDSPEENVQSNKMDLSGGMLQDKRMEIDKHSLNIGDYNRTVGKGPGSRPQISKESSMERNPYFDKDGIVADESQNMQFMSSQSMKLPPSNSALPNQALGSIAGLGMQNLNSVRQNGNPSMFGVGNTAAQPRGMQQPPAQPLSSSQPNLRAQVPPPLLSPQVPVSLLKYAPNNGGLNPLFGPQQVAMLNQLSQLNQLSQISQLQRLLAQQQRAQSQRSVPSGNRPQQDQQGRPLSVQQQMMQQSRQLDPNLLVKQQTPPSQQQPLHQPAMKSFLDNVMPHTTPELQKGPSPINAFSNFPIGLNSNLNVNMDMNSIKEPQSRLRKWTTVDSISVNTSLDQNSSKHGAISSGFRLEESPFVPYDFMNSSTSPASPPGSIGDGWPRAKSPNGSSSVNWPPEFRPGEPWKGYPNIDPETDPYVTPGSVINNLSINTVREVDHLRDRNSGSSSSLNTTLPSTSAWSSIRASNYNVPLSSTAQSTSARNSDSKLTWSPGSVTNTSLAHELWKVPLPPKNITAPSRPPPGLTGQKPPLSTWDNSPLRIGGGWGNSDARYTPGSSWGESSSGRITNWLVLKNLTPQIDGSTLRTLCMQHGPLITFHLNLPHGNALVRYSSKEEVVKAQKSLHMCVLGNTTILAEFASEEEISRFFAQSQSLTPSPGWQSLGSSQSRLGSLDCSHSFSSRTDLNHWNGAGLSGTNCGDLHGTSLWGTPHYSTSLWGPPSSSDPRGISSPSPINAFLSVDHLGGGGESM
B2: Protein Gawky (Drosophila melanogaster (Fruit fly)), Q8SY33 (parent)
chain: MREALFSQDGWGCQHVNQDTNWEVPSSPEPANKDAPGPPMWKPSINNGTDLWESNLRNGGQPAAQQVPKPSWGHTPSSNLGGTWGEDDDGADSSSVWTGGAVSNAGSGAAVGVNQAGVNVGPGGVVSSGGPQWGQGVVGVGLGSTGGNGSSNITGSSGVATGSSGNSSNAGNGWGDPREIRPLGVGGSMDIRNVEHRGGNGSGATSSDPRDIRMIDPRDPIRGDPRGISGRLNGTSEMWGHHPQMSHNQLQGINKMVGQSVATASTSVGTSGSGIGPGGPGPSTVSGNIPTQWGPAQPVSVGVSGPKDMSKQISGWEEPSPPPQRRSIPNYDDGTSLWGQQTRVPAASGHWKDMTDSIGRSSHLMRGQSQTGGIGIAGVGNSNVPVGANPSNPISSVVGPQARIPSVGGVQHKPDGGAMWVHSGNVGGRNNVAAVTTWGDDTHSVNVGAPSSGSVSSNNWVDDKSNSTLAQNSWSDPAPVGVSWGNKQSKPPSNSASSGWSTAAGVVDGVDLGSEWNTHGGIIGKSQQQQKLAGLNVGMVNVINAEIIKQSKQYRILVENGFKKEDVERALVIANMNIEEAADMLRANSSLSMDGWRRHDESLGSYADHNSSTSSGGFAGRYPVNSGQPSMSFPHNNLMNNMGGTAVTGGNNNTNMTALQVQKYLNQGQHGVAVGPQAVGNSSAVSVGFGQNTSNAAVAGAASVNIAANTNNQPSGQQIRMLGQQIQLAIHSGFISSQILTQPLTQTTLNLLNQLLSNIKHLQAAQQSLTRGGNVNPMAVNVAISKYKQQIQNLQNQINAQQAVYVKQQNMQPTSQQQQPQQQQLPSVHLSNSGNDYLRGHDAINNLQSNFSELNINKPSGYQGASNQQSRLNQWKLPVLDKEINSDSTEFSRAPGATKQNLTANTSNINSLGLQNDSTWSTGRSIGDGWPDPSSDNENKDWSVAQPTSAATAYTDLVQEFEPGKPWKGSQIKSIEDDPSITPGSVARSPLSINSTPKDADIFANTGKNSPTDLPPLSLSSSTWSFNPNQNYPSHSWSDNSQQCTATSELWTSPLNKSSSRGPPPGLTANSNKSANSNASTPTTITGGANGWLQPRSGGVQTTNTNWTGGNTTWGSSWLLLKNLTAQIDGPTLRTLCMQHGPLVSFHPYLNQGIALCKYTTREEANKAQMALNNCVLANTTIFAESPSENEVQSIMQHLPQTPSSTSSSGTSGGNVGGVGTSANNANSGSAACLSGNNSGNGNGSASGAGSGNNGNSSCNNSAAGGGSSSNNTITTVANSNLVGSSGSVSNSSGVTANSSTVSVVSCTASGNSINGAGTANSSGSKSSANNLASGQSSASNLTNSTNSTWRQTSQNQALQSQSRPSGREADFDYISLVYSIVDD
B3: Trinucleotide repeat-containing gene 6C protein (Homo sapiens), Q9HCJ0-1 (parent)
chain: MATGSAQGNFTGHTKKTNGNNGTNGALVQSPSNQSALGAGGANSNGSAARVWGVATGSSSGLAHCSVSGGDGKMDTMIGDGRSQNCWGASNSNAGINLNLNPNANPAAWPVLGHEGTVATGNPSSICSPVSAIGQNMGNQNGNPTGTLGAWGNLLPQESTEPQTSTSQNVSFSAQPQNLNTDGPNNTNPMNSSPNPINAMQTNGLPNWGMAVGMGAIIPPHLQGLPGANGSSVSQVSGGSAEGISNSVWGLSPGNPATGNSNSGFSQGNGDTVNSALSAKQNGSSSAVQKEGSGGNAWDSGPPAGPGILAWGRGSGNNGVGNIHSGAWGHPSRSTSNGVNGEWGKPPNQHSNSDINGKGSTGWESPSVTSQNPTVQPGGEHMNSWAKAASSGTTASEGSSDGSGNHNEGSTGREGTGEGRRRDKGIIDQGHIQLPRNDLDPRVLSNTGWGQTPVKQNTAWEFEESPRSERKNDNGTEAWGCAATQASNSGGKNDGSIMNSTNTSSVSGWVNAPPAAVPANTGWGDSNNKAPSGPGVWGDSISSTAVSTAAAAKSGHAWSGAANQEDKSPTWGEPPKPKSQHWGDGQRSNPAWSAGGGDWADSSSVLGHLGDGKKNGSGWDADSNRSGSGWNDTTRSGNSGWGNSTNTKANPGTNWGETLKPGPQQNWASKPQDNNVSNWGGAASVKQTGTGWIGGPVPVKQKDSSEATGWEEPSPPSIRRKMEIDDGTSAWGDPSNYNNKTVNMWDRNNPVIQSSTTTNTTTTTTTTTSNTTHRVETPPPHQAGTQLNRSPLLGPGRKVSSGWGEMPNVHSKTENSWGEPSSPSTLVDNGTAAWGKPPSSGSGWGDHPAEPPVAFGRAGAPVAASALCKPASKSMQEGWGSGGDEMNLSTSQWEDEEGDVWNNAASQESTSSCSSWGNAPKKGLQKGMKTSGKQDEAWIMSRLIKQLTDMGFPREPAEEALKSNNMNLDQAMSALLEKKVDVDKRGLGVTDHNGMAAKPLGCRPPISKESSVDRPTFLDKDGGLVEEPTPSPFLPSPSLKLPLSHSALPSQALGGIASGLGMQNLNSSRQIPSGNLGMFGNSGAAQARTMQQPPQPPVQPLNSSQPSLRAQVPQFLSPQVQAQLLQFAAKNIGLNPALLTSPINPQHMTMLNQLYQLQLAYQRLQIQQQMLQAQRNVSGSMRQQEQQVARTITNLQQQIQQHQRQLAQALLVKQPPPPPPPPHLSLHPSAGKSAMDSFPSHPQTPGLPDLQTKEQQSSPNTFAPYPLAGLNPNMNVNSMDMTGGLSVKDPSQSQSRLPQWTHPNSMDNLPSAASPLEQNPSKHGAIPGGLSIGPPGKSSIDDSYGRYDLIQNSESPASPPVAVPHSWSRAKSDSDKISNGSSINWPPEFHPGVPWKGLQNIDPENDPDVTPGSVPTGPTINTTIQDVNRYLLKSGGKLSDIKSTWSSGPTSHTQASLSHELWKVPRNSTAPTRPPPGLTNPKPSSTWGASPLGWTSSYSSGSAWSTDTSGRTSSWLVLRNLTPQIDGSTLRTLCLQHGPLITFHLNLTQGNAVVRYSSKEEAAKAQKSLHMCVLGNTTILAEFAGEEEVNRFLAQGQALPPTSSWQSSSASSQPRLSAAGSSHGLVRSDAGHWNAPCLGGKGSSELLWGGVPQYSSSLWGPPSADDSRVIGSPTPLTTLLPGDLLSGESL

Variants of B1 are the subject of one experiment. To be noted: with pabp_drome pAbp.
Target sequence in this assay (P21187 whole entry): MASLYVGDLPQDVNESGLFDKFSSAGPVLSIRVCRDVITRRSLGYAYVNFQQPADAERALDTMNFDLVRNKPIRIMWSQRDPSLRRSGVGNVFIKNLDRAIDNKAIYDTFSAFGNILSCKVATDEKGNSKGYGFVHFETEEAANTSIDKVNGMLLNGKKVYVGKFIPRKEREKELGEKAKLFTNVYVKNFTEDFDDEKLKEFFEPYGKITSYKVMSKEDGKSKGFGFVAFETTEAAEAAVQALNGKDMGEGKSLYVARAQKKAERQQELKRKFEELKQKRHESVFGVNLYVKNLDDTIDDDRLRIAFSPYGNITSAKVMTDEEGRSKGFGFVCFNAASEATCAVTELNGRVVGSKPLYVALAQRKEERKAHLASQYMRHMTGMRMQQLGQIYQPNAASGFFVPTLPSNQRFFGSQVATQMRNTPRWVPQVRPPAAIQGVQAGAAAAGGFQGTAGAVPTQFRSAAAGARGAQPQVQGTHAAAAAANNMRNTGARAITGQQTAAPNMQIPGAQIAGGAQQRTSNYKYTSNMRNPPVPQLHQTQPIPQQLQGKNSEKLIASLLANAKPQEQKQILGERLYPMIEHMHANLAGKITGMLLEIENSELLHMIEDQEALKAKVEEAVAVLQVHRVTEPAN
With F1612A, the “effect of a mutation on the interaction” value was “disrupting interaction”.

The variants in another experiment derive from B1. To be noted: with pabp1_human PABPC1, P11940.
Target sequence in this assay (P11940 whole entry): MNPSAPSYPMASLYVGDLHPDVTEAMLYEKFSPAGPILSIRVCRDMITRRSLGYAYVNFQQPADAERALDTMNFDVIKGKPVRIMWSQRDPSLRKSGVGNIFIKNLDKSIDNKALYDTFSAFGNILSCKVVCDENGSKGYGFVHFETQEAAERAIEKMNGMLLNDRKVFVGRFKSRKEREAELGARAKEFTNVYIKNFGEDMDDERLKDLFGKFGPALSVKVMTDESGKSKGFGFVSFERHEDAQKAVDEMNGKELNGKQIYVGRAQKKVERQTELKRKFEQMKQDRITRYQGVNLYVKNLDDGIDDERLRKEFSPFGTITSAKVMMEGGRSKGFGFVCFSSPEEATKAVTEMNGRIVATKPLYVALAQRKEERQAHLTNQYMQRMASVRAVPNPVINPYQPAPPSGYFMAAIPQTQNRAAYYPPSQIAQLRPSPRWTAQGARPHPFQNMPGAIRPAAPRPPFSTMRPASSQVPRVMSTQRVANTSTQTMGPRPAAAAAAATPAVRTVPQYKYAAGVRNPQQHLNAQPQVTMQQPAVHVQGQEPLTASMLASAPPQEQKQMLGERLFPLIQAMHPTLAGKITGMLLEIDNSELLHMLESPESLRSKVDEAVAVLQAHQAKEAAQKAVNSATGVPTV
On to F1612A, for which the “effect of a mutation on the interaction” value was “disrupting interaction”.

In another experiment the parent is B2. To be noted: with pabp_drome pAbp.
Target sequence in this assay (P21187 whole entry): as the sequence (P21187 whole entry) above
F961A: the “effect of a mutation on the interaction” value is on record as “disrupting interaction”.

The variants in a further experiment derive from B2. To be noted: with pabp_drome pAbp. This is another data set of the same source.
Target sequence in this assay (P21187 whole entry): as above
Consider V958P, for which the “effect of a mutation on the interaction” value is “increasing interaction”. Turning to Q959P, the “effect of a mutation on the interaction” value is given as “increasing interaction”.

Another experiment covers variants of B2. To be noted: with pabp_drome pAbp. This is another data set of the same source.
Target sequence in this assay (P21187 whole entry): as above
E962Q: the “effect of a mutation on the interaction” value is recorded as “increasing interaction”.

In another experiment the parent is B3. Conditions: with pabp_drome pAbp.
Target sequence in this assay (P21187 whole entry): as above
As to F1389A, the “effect of a mutation on the interaction” value is “disrupting interaction”.

The next experiment covers variants of B3. Conditions: with pabp1_human PABPC1, P11940.
Target sequence in this assay (P11940 whole entry): as the sequence (P11940 whole entry) above
For F1389A, the “effect of a mutation on the interaction” value was “disrupting interaction”.

Values taken from IntAct's records for PubMed 21063388.
